B1: Hammerhead Ribozyme (parent)
chain: ACCGGAUGUGCUUUCCGGUCUGAUGAGUCCGUGAGGACGAAACAG

In the RNAGym collection of RNA variant scans (doi:10.7554/elife.80360) one finds self-cleavage data, which are given here for 167 variants.

This data set covers variants of B1. As to the kind of experiment: self-cleavage, relative activity (ratio to wild type); higher = more cleavage; co-transcriptional.
Take A6G U24A: the self-cleavage amounted to 0.597. The same measure for A6C C20A: 0.291; for A6C C20G: 0.335; for A6C C20U: 0.371.

Turning to A6C G22C, the self-cleavage was 0.296. As to A6C G22A, the self-cleavage was found to be 0.29. Regarding A6C G22U, the self-cleavage is 0.39.

In the case of G5U U13A, the self-cleavage amounted to 1.37.

As to G5U U13C, the self-cleavage amounted to 1.15. For G5U U13G, the self-cleavage stood at 1.02.

Turning to A6G A42U, the self-cleavage was 0.219.

Turning to A6G A42C, the self-cleavage came out at 0.268. On to A6G A42G, for which the self-cleavage stood at 0.275.

Regarding A6U A41C, the self-cleavage is 0.334. As to A6U A41G, the self-cleavage amounted to 0.289. On to A6U A41U, for which the self-cleavage stood at 0.282.

As to G5U U32G, the self-cleavage came to 0.367.

G5U U32A: the self-cleavage came to 0.795.

G5U U32C: the self-cleavage turned out to be 0.822. A6C G18A: the self-cleavage amounted to 0.311. The same measure for A6C G18C: 0.311; for A6C G18U: 0.428. Consider A6G C11A, for which the self-cleavage worked out at 0.965. Take A6G C11U: the self-cleavage is 0.796. Take A6G C11G: the self-cleavage was 0.921.

For A6C G45C, the self-cleavage came out at 0.433. Turning to A6C G45U, the self-cleavage turned out to be 0.44. Regarding A6C G45A, the self-cleavage was found to be 0.384.

With A6G U7G, the self-cleavage is 1.35.

As for A6G U7A, the self-cleavage turned out to be 1.09. As for A6G U7C, the self-cleavage was found to be 1.29. The value for A6G G8A was 1.17; that for A6G G8U was 0.844. As to A6G G8C, the self-cleavage was 0.708. As for A6U C30A, the self-cleavage was 0.649.

Regarding A6U C30G, the self-cleavage was 0.525. As to A6U C30U, the self-cleavage was 0.743. G5U G31U: the self-cleavage was 1.2. Turning to G5U G31C, the self-cleavage came to 1.03. For the variant G5U G31A, the self-cleavage is 1.25. Consider A6C U24A, for which the self-cleavage was determined as 0.707. Consider A6C U24G, for which the self-cleavage came to 0.511. The value for A6C U24C was 0.387; that for A6C C11U was 0.592; that for A6C C11G was 0.958. A6C C11A: the self-cleavage stood at 0.669.

Regarding A6C A37C, the self-cleavage was found to be 0.475. Take A6C A37G: the self-cleavage was found to be 0.333. For A6C A37U, the self-cleavage came out at 0.449.

Take A6G U14C: the self-cleavage is 0.704.

For A6G U14A, the self-cleavage is 0.436. As for A6G U14G, the self-cleavage was 1.13. The same measure for A6C G8C: 0.916; for A6C G8A: 0.783. For A6C G8U, the self-cleavage amounted to 0.633. In the case of A6G C30G, the self-cleavage was 0.594. Take A6G C30A: the self-cleavage amounted to 0.48. In the case of A6G C30U, the self-cleavage is 0.634. The same measure for A6U C38A: 0.511; for A6G G35U: 0.465.

As to A6G G35C, the self-cleavage stood at 0.684. A6G G35A: the self-cleavage came to 0.302. Turning to A6C C30G, the self-cleavage came to 0.437. Take A6C C30U: the self-cleavage amounted to 0.51. Take A6C C30A: the self-cleavage is 0.588. For the variant A6C G25A, the self-cleavage came out at 0.286. In the case of A6C G25C, the self-cleavage stood at 0.24. For the variant A6C G25U, the self-cleavage is 0.219. As to G5U G45A, the self-cleavage was 0.431. G5U G45U: the self-cleavage came to 0.529. For G5U G45C, the self-cleavage was determined as 0.443. Turning to A6G A23C, the self-cleavage is 0.277.

As for A6G A23G, the self-cleavage is 0.272. As for A6G A23U, the self-cleavage was found to be 0.274. The same measure for A6G A37C: 0.656; for A6G A37U: 0.44. Consider A6G A37G, for which the self-cleavage was 0.674. As to A6U C11A, the self-cleavage came out at 0.831. For A6U C11U, the self-cleavage amounted to 0.607.

Take A6U C11G: the self-cleavage was found to be 0.827. For A6G G31A, the self-cleavage came out at 0.853. As for A6G G31C, the self-cleavage came out at 0.979.

Take A6G G31U: the self-cleavage stood at 0.945.

For the variant G5U G33U, the self-cleavage is 1.06.

In the case of G5U G33C, the self-cleavage came to 0.813. G5U G33A: the self-cleavage was 0.913.

On to A6G G17C, for which the self-cleavage was 0.494. As for A6G G17U, the self-cleavage is 0.393. For A6G G17A, the self-cleavage came out at 0.389.

On to A6U A42U, for which the self-cleavage was 0.241. As to A6U A42C, the self-cleavage was determined as 0.238. A6U A42G: the self-cleavage amounted to 0.307.

As for A6C A40U, the self-cleavage stood at 0.37. On to A6C A40C, for which the self-cleavage came out at 0.386. Take A6C A40G: the self-cleavage was 0.38. Regarding A6G G22C, the self-cleavage was 0.284. Consider A6G G22A, for which the self-cleavage is 0.239. The value for A6G G22U was 0.28; that for G5U G36A was 0.417; that for G5U G36C was 0.32.

For the variant G5U G36U, the self-cleavage came to 0.327. As for A6C A26U, the self-cleavage turned out to be 0.337. The value for A6C A26G was 0.147.

A6C A26C: the self-cleavage came out at 0.348. On to A6G A44G, for which the self-cleavage was 1.08. In the case of A6G A44U, the self-cleavage is 0.483. In the case of A6G A44C, the self-cleavage was 0.523. On to A6C A23G, for which the self-cleavage was determined as 0.306. Consider A6C A23C, for which the self-cleavage was found to be 0.333.

As to A6C A23U, the self-cleavage turned out to be 0.271. A6C G33A: the self-cleavage stood at 0.689. The same measure for A6C G33U: 0.579; for A6C G33C: 0.472. Turning to A6G U13A, the self-cleavage was 0.842.

Regarding A6G U13G, the self-cleavage was 0.778. In the case of A6G U13C, the self-cleavage is 0.722.

As for A6C G35C, the self-cleavage was 0.391. As to A6C G35A, the self-cleavage came to 0.568. A6C G35U: the self-cleavage was 0.744. In the case of A6C C38G, the self-cleavage stood at 0.427. Turning to A6C C38A, the self-cleavage worked out at 0.469.

Regarding A6C C38U, the self-cleavage was 0.67.

For A6C A34C, the self-cleavage was 0.745.

On to A6C A34U, for which the self-cleavage worked out at 0.529. Take A6C A34G: the self-cleavage is 0.722.

As for A6U A23C, the self-cleavage is 0.368. A6U A23U: the self-cleavage was 0.311. With A6U A23G, the self-cleavage amounted to 0.249. The value for A6U was 0.696; that for A6G was 0.806; that for A6C was 0.722. The value for A6C C15G was 0.559; that for A6C C15U was 0.659. As for A6C C15A, the self-cleavage came to 0.761.

Turning to A6U C15A, the self-cleavage came out at 0.741.

Regarding A6U C15U, the self-cleavage is 0.708. For A6U C15G, the self-cleavage worked out at 0.527. A6G C16G: the self-cleavage came out at 0.537. The value for A6G C16U was 0.762; that for A6G C16A was 0.825; that for G5U U21C was 0.668. The value for G5U U21G was 0.419; that for G5U U21A was 0.45; that for A6G G10U was 1.1. Regarding A6G G10A, the self-cleavage came out at 0.989. On to A6G G10C, for which the self-cleavage was 0.889. In the case of A6C U19G, the self-cleavage was determined as 0.269. With A6C U19A, the self-cleavage stood at 0.265. As to A6C U19C, the self-cleavage stood at 0.397.

For A6G G25A, the self-cleavage stood at 0.263. The same measure for A6G G25C: 0.283. Consider A6G G25U, for which the self-cleavage is 0.194. With A6C G36C, the self-cleavage amounted to 0.326. A6C G36U: the self-cleavage was found to be 0.34.

Regarding A6C G36A, the self-cleavage worked out at 0.391.

Regarding A6G U19G, the self-cleavage amounted to 0.264. The value for A6G U19C was 0.486; that for A6G U19A was 0.278; that for A6C C16A was 0.643. In the case of A6C C16U, the self-cleavage was determined as 0.689. For the variant A6C C16G, the self-cleavage was 0.372. For the variant A6U A26C, the self-cleavage is 0.393. The same measure for A6U A26U: 0.588.

In the case of A6U A26G, the self-cleavage is 0.291. With A6U A34U, the self-cleavage was found to be 0.631. On to A6U A34G, for which the self-cleavage stood at 0.786. Turning to A6U A34C, the self-cleavage is 0.651.
